From patent US20200317768A1 (published 2020)

T1: cynomolgus monkey FcγRIIa1 extracellular domain, His-tagged (cynomolgus monkey)
T1 construct: also called cyno FcγRIIa1; cynoFcgRIIa1; not shown: C-terminal His-tag
T1 chain: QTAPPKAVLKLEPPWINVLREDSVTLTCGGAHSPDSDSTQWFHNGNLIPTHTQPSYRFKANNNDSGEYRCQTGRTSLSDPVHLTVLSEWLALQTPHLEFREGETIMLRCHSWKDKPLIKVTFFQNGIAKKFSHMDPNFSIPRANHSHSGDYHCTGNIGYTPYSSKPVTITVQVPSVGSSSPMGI

T2: cynomolgus monkey FcγRIIa3 extracellular domain, His-tagged (cynomolgus monkey)
T2 construct: also called cyno FcγRIIa3; cynoFcgRIIa3; not shown: C-terminal His-tag
T2 chain: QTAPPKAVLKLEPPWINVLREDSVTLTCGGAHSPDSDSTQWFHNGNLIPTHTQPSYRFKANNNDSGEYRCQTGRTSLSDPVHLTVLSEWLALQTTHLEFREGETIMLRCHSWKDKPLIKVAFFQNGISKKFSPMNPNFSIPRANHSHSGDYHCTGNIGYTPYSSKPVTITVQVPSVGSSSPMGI

T3: cynomolgus monkey FcγRIIb extracellular domain, His-tagged (cynomolgus monkey)
T3 construct: also called cyno FcγRIIb; cynoFcγRIIb; not shown: C-terminal His-tag
T3 chain: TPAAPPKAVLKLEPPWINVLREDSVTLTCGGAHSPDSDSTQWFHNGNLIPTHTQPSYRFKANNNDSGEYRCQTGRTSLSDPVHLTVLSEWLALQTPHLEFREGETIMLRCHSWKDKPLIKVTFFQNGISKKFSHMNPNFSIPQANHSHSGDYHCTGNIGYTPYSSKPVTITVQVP

T4: cynomolgus monkey FcγRIIIaS extracellular domain, His-tagged (cynomolgus monkey, UniProt Q8SPW2 21-206 at identity 1.00))
T4 construct: also called cyno FcγRIIIaS; cynoFcγRIIIaS; not shown: C-terminal His-tag
T4 chain: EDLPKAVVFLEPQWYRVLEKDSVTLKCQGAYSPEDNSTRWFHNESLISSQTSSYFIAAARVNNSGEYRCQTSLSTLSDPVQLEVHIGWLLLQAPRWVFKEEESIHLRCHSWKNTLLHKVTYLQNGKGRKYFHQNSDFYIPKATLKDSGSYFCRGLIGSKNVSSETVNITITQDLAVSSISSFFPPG

T5: human FcγRIIaH extracellular domain, His-tagged (human, UniProt P12318 34-217)
T5 construct: also called human FcγRIIa (type H); FcgRIIaH; not shown: C-terminal His-tag
T5 sequence: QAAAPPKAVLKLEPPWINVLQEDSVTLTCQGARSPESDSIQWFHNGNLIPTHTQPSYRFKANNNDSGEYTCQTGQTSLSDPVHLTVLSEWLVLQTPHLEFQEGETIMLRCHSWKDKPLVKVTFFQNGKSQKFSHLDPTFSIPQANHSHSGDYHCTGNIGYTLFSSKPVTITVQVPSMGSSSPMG

T6: human FcγRIIaR extracellular domain, His-tagged (human, UniProt P12318 34-217)
T6 construct: also called human FcγRIIa (type R); FcgRIIaR; not shown: C-terminal His-tag
T6 chain: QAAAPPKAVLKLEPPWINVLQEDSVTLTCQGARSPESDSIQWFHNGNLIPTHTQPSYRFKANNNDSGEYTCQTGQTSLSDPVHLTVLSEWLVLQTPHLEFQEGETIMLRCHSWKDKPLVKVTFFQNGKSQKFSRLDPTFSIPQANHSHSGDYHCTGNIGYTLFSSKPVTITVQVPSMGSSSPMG

T7: human FcγRIIb extracellular domain, His-tagged (human, UniProt P31994 43-217)
T7 construct: also called FcgRIIb (human); not shown: C-terminal His-tag
T7 sequence: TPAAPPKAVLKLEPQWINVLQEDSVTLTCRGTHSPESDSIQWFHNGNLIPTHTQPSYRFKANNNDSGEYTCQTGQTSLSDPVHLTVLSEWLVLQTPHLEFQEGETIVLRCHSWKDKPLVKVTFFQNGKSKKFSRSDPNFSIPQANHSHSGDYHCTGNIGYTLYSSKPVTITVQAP


Assays:
Experiment in all cases: SPR (BIACORE); KD of SG1 divided by KD of variant
[1] = biological target: T1, cynomolgus monkey FcγRIIa1 …
[2] = biological target: T2, cynomolgus monkey FcγRIIa3 …
[3] = biological target: T3, cynomolgus monkey FcγRIIb extracellular …
[4] = biological target: T4, cynomolgus monkey FcγRIIIaS …
[5] = biological target: T5, human FcγRIIaH extracellular domain, …
[6] = biological target: T6, human FcγRIIaR extracellular domain, …
[7] = biological target: T7, human FcγRIIb extracellular domain, …
[8] = biological target: T8, human FcγRIIIaV extracellular domain, His-tagged (human, UniProt P08637 17-208)
T8 construct: also called FcgRIIIaV; not shown: C-terminal His-tag
T8 sequence (P08637 17-208 F176V): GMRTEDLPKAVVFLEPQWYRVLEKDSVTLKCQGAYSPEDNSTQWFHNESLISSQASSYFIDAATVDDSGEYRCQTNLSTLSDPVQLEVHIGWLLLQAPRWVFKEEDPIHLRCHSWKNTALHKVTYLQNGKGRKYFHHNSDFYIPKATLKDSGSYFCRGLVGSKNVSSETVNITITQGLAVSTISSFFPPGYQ

| KD fold (SG1 = 1) [1] | KD fold (SG1 = 1) [2] | KD fold (SG1 = 1) [3] | KD fold (SG1 = 1) [4] | KD fold (SG1 = 1) [5] | KD fold (SG1 = 1) [6] | KD fold (SG1 = 1) [7] | KD fold (SG1 = 1) [8] | Binder |
| --- | --- | --- | --- | --- | --- | --- | --- | --- |
| 1 fold | 1 fold | 1 fold | 1 fold | 1 fold | 1 fold | 1 fold | 1 fold | MS_M103205H795-SG1/M103202L889-SK1 (antibody, human IgG1, kappa, Parent antibody with heavy chain constant region SG1; also called MS1032LO06-SG1; copies: 2 + 2) heavy: not shown light: DIVMTQSPATLSLSPGERATLSCTSSQSVYHANWLSWFQQKPGQPPKLLIYWASTLAYGVPSRFSGSGSGTDFTLTISSLQPEDAATYYCAGGYGGGRYAFGQGTKVEIKRTVAAPSVFIFPPSDEQLKSGTASVVCLLNNFYPREAKVQWKVDNALQSGNSQESVTEQDSKDSTYSLSSTLTLSKADYEKHKVYACEVTHQGLSSPVTKSFNRGEC |
| 0.7 fold | 1.9 fold | 1.5 fold | 0.1 fold | 1.3 fold | 1.7 fold | 1.6 fold | 0.1 fold | M103205H795-MY443/M103202L889-SK1 (antibody, human IgG1, kappa, copies: 2 + 2) heavy: QVTLKESGPVLVKPTETLTLTCTVSGIDLSHDDISWVRQAPGKGLEWVGIISYAGSTYYASWAKGRLTISKDTSKNQVVLTMTNMDPVDTATYYCARGVPAYSHGGDLWGQGTLVTVSSASTKGPSVFPLAPSSKSTSGGTAALGCLVKDYFPEPVTVSWNSGALTSGVHTFPAVLQSSGLYSLSSVVTVPSSSLGTQTYICNVNHKPSNTKVDKKVEPKSCDKTHTCPPCPAEELLTGPSVFLFPPKPKDTLMISRTPEVTCVVVDVSDEDPEVKFNWYVDGVEVHNAKTKPREEQYNSTYRVVSVLTVLHQDWLNGKEYKCKVSNKALPKPIEKTISKAKGQPREPQVYTLPPSREEMTKNQVSLTCLVKGFYPSDIAVEWESNGQPENNYKTTPPVLDSDGSFFLYSKLTVDKSRWQQGNVFSCSVMHEALHNHYTQKSLSLSP light: DIVMTQSPATLSLSPGERATLSCTSSQSVYHANWLSWFQQKPGQPPKLLIYWASTLAYGVPSRFSGSGSGTDFTLTISSLQPEDAATYYCAGGYGGGRYAFGQGTKVEIKRTVAAPSVFIFPPSDEQLKSGTASVVCLLNNFYPREAKVQWKVDNALQSGNSQESVTEQDSKDSTYSLSSTLTLSKADYEKHKVYACEVTHQGLSSPVTKSFNRGEC |
| 0.7 fold | 2.5 fold | 1.6 fold | 0.2 fold | 1.5 fold | 2.6 fold | 2.6 fold | 0.2 fold | M103205H795-MY442/M103202L889-SK1 (antibody, human IgG1, kappa, copies: 2 + 2) heavy: QVTLKESGPVLVKPTETLTLTCTVSGIDLSHDDISWVRQAPGKGLEWVGIISYAGSTYYASWAKGRLTISKDTSKNQVVLTMTNMDPVDTATYYCARGVPAYSHGGDLWGQGTLVTVSSASTKGPSVFPLAPSSKSTSGGTAALGCLVKDYFPEPVTVSWNSGALTSGVHTFPAVLQSSGLYSLSSVVTVPSSSLGTQTYICNVNHKPSNTKVDKKVEPKSCDKTHTCPPCPADELLTGPSVFLFPPKPKDTLMISRTPEVTCVVVDVSDEDPEVKFNWYVDGVEVHNAKTKPREEQYNSTYRVVSVLTVLHQDWLNGKEYKCKVSNKALPKPIEKTISKAKGQPREPQVYTLPPSREEMTKNQVSLTCLVKGFYPSDIAVEWESNGQPENNYKTTPPVLDSDGSFFLYSKLTVDKSRWQQGNVFSCSVMHEALHNHYTQKSLSLSP light: DIVMTQSPATLSLSPGERATLSCTSSQSVYHANWLSWFQQKPGQPPKLLIYWASTLAYGVPSRFSGSGSGTDFTLTISSLQPEDAATYYCAGGYGGGRYAFGQGTKVEIKRTVAAPSVFIFPPSDEQLKSGTASVVCLLNNFYPREAKVQWKVDNALQSGNSQESVTEQDSKDSTYSLSSTLTLSKADYEKHKVYACEVTHQGLSSPVTKSFNRGEC |
| 1.5 fold | 3.5 fold | 3.1 fold | 0.2 fold | 3.3 fold | 2.5 fold | 2.1 fold | 0.2 fold | M103205H795-MY265/M103202L889-SK1 (antibody, human IgG1, kappa, also called MS103205H795-MY265; copies: 2 + 2) heavy: QVTLKESGPVLVKPTETLTLTCTVSGIDLSHDDISWVRQAPGKGLEWVGIISYAGSTYYASWAKGRLTISKDTSKNQVVLTMTNMDPVDTATYYCARGVPAYSHGGDLWGQGTLVTVSSASTKGPSVFPLAPSSKSTSGGTAALGCLVKDYFPEPVTVSWNSGALTSGVHTFPAVLQSSGLYSLSSVVTVPSSSLGTQTYICNVNHKPSNTKVDKKVEPKSCDKTHTCPPCPAPELLTGPSVFLFPPKPKDTLMISRTPEVTCVVVDVSDEDPEVKFNWYVDGVEVHNAKTKPREEQYNSTYRVVSVLTVLHQDWLNGKEYKCKVSNKALPKPIEKTISKAKGQPREPQVYTLPPSREEMTKNQVSLTCLVKGFYPSDIAVEWESNGQPENNYKTTPPVLDSDGSFFLYSKLTVDKSRWQQGNVFSCSVMHEALHNHYTQKSLSLSP light: DIVMTQSPATLSLSPGERATLSCTSSQSVYHANWLSWFQQKPGQPPKLLIYWASTLAYGVPSRFSGSGSGTDFTLTISSLQPEDAATYYCAGGYGGGRYAFGQGTKVEIKRTVAAPSVFIFPPSDEQLKSGTASVVCLLNNFYPREAKVQWKVDNALQSGNSQESVTEQDSKDSTYSLSSTLTLSKADYEKHKVYACEVTHQGLSSPVTKSFNRGEC |
| 0.8 fold | 2.1 fold | 2 fold | 0.1 fold | 1.9 fold | 1.8 fold | 1.6 fold | 0.1 fold | M103205H795-MY441/M103202L889-SK1 (antibody, human IgG1, kappa, copies: 2 + 2) heavy: QVTLKESGPVLVKPTETLTLTCTVSGIDLSHDDISWVRQAPGKGLEWVGIISYAGSTYYASWAKGRLTISKDTSKNQVVLTMTNMDPVDTATYYCARGVPAYSHGGDLWGQGTLVTVSSASTKGPSVFPLAPSSKSTSGGTAALGCLVKDYFPEPVTVSWNSGALTSGVHTFPAVLQSSGLYSLSSVVTVPSSSLGTQTYICNVNHKPSNTKVDKKVEPKSCDKTHTCPPCPAAELLTGPSVFLFPPKPKDTLMISRTPEVTCVVVDVSDEDPEVKFNWYVDGVEVHNAKTKPREEQYNSTYRVVSVLTVLHQDWLNGKEYKCKVSNKALPKPIEKTISKAKGQPREPQVYTLPPSREEMTKNQVSLTCLVKGFYPSDIAVEWESNGQPENNYKTTPPVLDSDGSFFLYSKLTVDKSRWQQGNVFSCSVMHEALHNHYTQKSLSLSP light: DIVMTQSPATLSLSPGERATLSCTSSQSVYHANWLSWFQQKPGQPPKLLIYWASTLAYGVPSRFSGSGSGTDFTLTISSLQPEDAATYYCAGGYGGGRYAFGQGTKVEIKRTVAAPSVFIFPPSDEQLKSGTASVVCLLNNFYPREAKVQWKVDNALQSGNSQESVTEQDSKDSTYSLSSTLTLSKADYEKHKVYACEVTHQGLSSPVTKSFNRGEC |
